Laboratory results reported in the Immune Epitope Database (IEDB).

How the values were obtained:
HLA-A*02:01 [1] = assay: IEDB peptide-MHC binding, purified MHC/competitive/radioactivity; ≥ and ≤ were set here for values at or beyond the usual limits of such assays; conditions: source organism: Homo sapiens
HLA-A*01:01 = assay: IEDB peptide-MHC binding, purified MHC/direct/fluorescence; filed as Kd, often an IC50 or EC50 that approximates it; ≥ and ≤ were set here for values at or beyond the usual limits of such assays; conditions: source organism: Giardia lamblia ATCC 50803
HLA-B*15:01 [2] = assay: as above; conditions: source organism: Giardia lamblia ATCC 50803
HLA-B*07:02 = assay: as above; conditions: source organism: Giardia lamblia ATCC 50803
HLA-B*08:01 = assay: as above; conditions: source organism: Giardia lamblia ATCC 50803
HLA-A*30:01 = assay: as above; conditions: source organism: Giardia lamblia ATCC 50803
HLA-A*31:01 = assay: as above; conditions: source organism: Giardia lamblia ATCC 50803
HLA-A*26:01 [3] = assay: as above; conditions: source organism: Giardia lamblia ATCC 50803
HLA-B*40:01 = assay: as above; conditions: source organism: Giardia lamblia ATCC 50803
HLA-A*69:01 [4] = assay: as above; conditions: source organism: Giardia lamblia ATCC 50803
HLA-A*24:03 = assay: as above; conditions: source organism: Giardia lamblia ATCC 50803
HLA-A*03:01 [5] = assay: as above; conditions: source organism: Giardia lamblia ATCC 50803
HLA-B*44:02 = assay: as above; conditions: source organism: Giardia lamblia ATCC 50803
HLA-A*11:01 = assay: as above; conditions: source organism: Giardia lamblia ATCC 50803
HLA-B*58:01 = assay: as above; conditions: source organism: Giardia lamblia ATCC 50803
HLA-A*02:01 [6] = assay: as above; conditions: source organism: Giardia lamblia ATCC 50803
HLA-B*27:05 = assay: as above; conditions: source organism: Giardia lamblia ATCC 50803
HLA-A*68:23 = assay: IEDB peptide-MHC binding, purified MHC/competitive/fluorescence; filed as Kd, often an IC50 or EC50 that approximates it; ≥ and ≤ were set here for values at or beyond the usual limits of such assays; conditions: source organism: Entamoeba histolytica HM-1:IMSS
HLA-B*83:01 = assay: as above
HLA-C*14:02 = assay: as above; conditions: source organism: Entamoeba histolytica HM-1:IMSS
HLA-B*15:42 = assay: as above
HLA-A*32:15 = assay: as above; conditions: source organism: Entamoeba histolytica HM-1:IMSS
HLA-B*45:06 = assay: as above
HLA-A*29:02 = assay: as above
HLA-C*15:02 = assay: IEDB peptide-MHC binding, purified MHC/direct/fluorescence; filed as Kd, often an IC50 or EC50 that approximates it; ≥ and ≤ were set here for values at or beyond the usual limits of such assays; conditions: source organism: Entamoeba histolytica HM-1:IMSS
HLA-A*02:03 = assay: IEDB peptide-MHC binding, purified MHC/competitive/fluorescence; filed as Kd, often an IC50 or EC50 that approximates it; ≥ and ≤ were set here for values at or beyond the usual limits of such assays; conditions: source organism: Yersinia pestis Nepal516
HLA-B*39:01 = assay: as above
HLA-A*68:02 = assay: as above
HLA-B*15:01 [7] = assay: as above; conditions: source organism: Yersinia pestis Nepal516
HLA-A*25:01 = assay: as above; conditions: source organism: Yersinia pestis Nepal516
HLA-B*51:01 = assay: as above; conditions: source organism: Yersinia pestis Nepal516
HLA-A*02:12 = assay: as above
HLA-B*57:01 = assay: as above
HLA-B*46:01 = assay: as above
HLA-A*26:01 [8] = assay: as above
HLA-A*69:01 [9] = assay: as above
HLA-A*03:01 [10] = assay: as above
HLA-A*02:11 = assay: as above
HLA-B*18:01 = assay: as above
HLA-A*02:16 = assay: as above; conditions: source organism: Yersinia pestis Nepal516
HLA-A*80:01 = assay: as above; conditions: source organism: Yersinia pestis Nepal516
HLA-B*15:17 = assay: as above; conditions: source organism: Yersinia pestis Nepal516
HLA-A*02:19 = assay: as above
HLA-B*27:03 = assay: as above
HLA-A*02:01 [11] = assay: as above; conditions: source organism: Yersinia pestis Nepal516
HLA-A*02:01 [12] = assay: IEDB peptide-MHC binding, cellular MHC/competitive/fluorescence; filed as Kd, often an IC50 or EC50 that approximates it; ≥ and ≤ were set here for values at or beyond the usual limits of such assays; conditions: source organism: Homo sapiens
HLA-A*03:19 = assay: IEDB peptide-MHC binding, purified MHC/competitive/fluorescence; filed as Kd, often an IC50 or EC50 that approximates it; ≥ and ≤ were set here for values at or beyond the usual limits of such assays; conditions: source organism: Cryptosporidium parvum Iowa II
HLA-B*27:20 = assay: as above; conditions: source organism: Cryptosporidium parvum Iowa II
[13] = source organism: Entamoeba histolytica HM-1:IMSS
[14] = source organism: Yersinia pestis Nepal516
[15] = source organism: Cryptosporidium parvum Iowa II

**Q.** KMDSFLDMQL was tested. Which IC50 (HLA-A*02:01 [1]) did it give?
**A.** 0.0114 µM

**Q.** KTPWDRFCK was tested. Which Kd (HLA-A*01:01) did it give?
**A.** ≥ 20 µM

**Q.** And the Kd (HLA-B*15:01 [2])?
**A.** ≥ 20 µM

**Q.** What about the Kd (HLA-B*07:02) of the same sequence?
**A.** ≥ 20 µM

**Q.** What about the Kd (HLA-B*08:01) of the same sequence?
**A.** ≥ 20 µM

**Q.** And the Kd (HLA-A*30:01)?
**A.** 0.0218 µM

**Q.** What about the Kd (HLA-A*31:01) of the same sequence?
**A.** 0.0957 µM

**Q.** And the Kd (HLA-A*26:01 [3])?
**A.** ≥ 20 µM

**Q.** What about the Kd (HLA-B*40:01) of the same sequence?
**A.** ≥ 20 µM

**Q.** And the Kd (HLA-A*69:01 [4])?
**A.** ≥ 20 µM

**Q.** And the Kd (HLA-A*24:03)?
**A.** 6.93 µM

**Q.** And the Kd (HLA-A*03:01 [5])?
**A.** 3.63 µM

**Q.** And the Kd (HLA-B*44:02)?
**A.** ≥ 20 µM

**Q.** What about the Kd (HLA-A*11:01) of the same sequence?
**A.** 0.0641 µM

**Q.** What about the Kd (HLA-B*58:01) of the same sequence?
**A.** ≥ 20 µM

**Q.** And the Kd (HLA-A*02:01 [6])?
**A.** ≥ 20 µM

**Q.** And the Kd (HLA-B*27:05)?
**A.** ≥ 20 µM

**Q.** For YIISTHYQF, which Kd (HLA-A*68:23) is on record?
**A.** 0.204 µM

**Q.** What about the Kd (HLA-B*83:01; [13]) of the same sequence?
**A.** 5.79 µM

**Q.** What about the Kd (HLA-C*14:02) of the same sequence?
**A.** 0.158 µM

**Q.** And the Kd (HLA-B*15:42; [13])?
**A.** ≥ 5 µM

**Q.** What about the Kd (HLA-A*32:15) of the same sequence?
**A.** 0.213 µM

**Q.** And the Kd (HLA-B*45:06; [13])?
**A.** ≥ 5 µM

**Q.** And the Kd (HLA-A*29:02; [13])?
**A.** 0.0003 µM

**Q.** And the Kd (HLA-C*15:02)?
**A.** 1.94 µM

**Q.** Which results are given for LELIGNAES?
**A.** Kd (HLA-A*02:03): ≥ 20 µM; Kd (HLA-B*39:01; [14]): ≥ 20 µM; Kd (HLA-A*68:02; [14]): ≥ 20 µM; Kd (HLA-B*15:01 [7]): ≥ 20 µM; Kd (HLA-A*25:01): ≥ 20 µM; Kd (HLA-B*51:01): ≥ 20 µM; Kd (HLA-A*02:12; [14]): ≥ 20 µM; Kd (HLA-B*57:01; [14]): ≥ 20 µM; Kd (HLA-B*46:01; [14]): ≥ 20 µM; Kd (HLA-A*26:01 [8]; [14]): ≥ 20 µM; Kd (HLA-A*69:01 [9]; [14]): ≥ 20 µM; Kd (HLA-A*03:01 [10]; [14]): ≥ 20 µM; Kd (HLA-A*02:11; [14]): ≥ 20 µM; Kd (HLA-B*18:01; [14]): 0.921 µM; Kd (HLA-A*02:16): ≥ 20 µM; Kd (HLA-A*29:02; [14]): ≥ 20 µM; Kd (HLA-A*80:01): ≥ 20 µM; Kd (HLA-B*15:17): ≥ 20 µM; Kd (HLA-A*02:19; [14]): ≥ 20 µM; Kd (HLA-B*27:03; [14]): ≥ 20 µM; Kd (HLA-A*02:01 [11]): ≥ 20 µM

**Q.** Which Kd (HLA-A*02:01 [12]) does the source give for KLVVVGAGGV here?
**A.** ≥ 156 µM

**Q.** Which results are given for RIYKRSLKL?
**A.** Kd (HLA-B*39:01; [15]): ≥ 20 µM; Kd (HLA-A*68:02; [15]): ≥ 20 µM; Kd (HLA-A*03:19): 0.0141 µM; Kd (HLA-B*83:01; [15]): ≥ 5 µM; Kd (HLA-B*27:20): 0.0293 µM; Kd (HLA-B*15:42; [15]): 2.19 µM; Kd (HLA-A*02:12; [15]): ≥ 20 µM; Kd (HLA-B*57:01; [15]): ≥ 20 µM; Kd (HLA-B*45:06; [15]): ≥ 5 µM; Kd (HLA-B*46:01; [15]): ≥ 20 µM; Kd (HLA-A*26:01 [8]; [15]): ≥ 20 µM; Kd (HLA-A*69:01 [9]; [15]): ≥ 20 µM; Kd (HLA-A*03:01 [10]; [15]): 0.0189 µM; Kd (HLA-A*02:11; [15]): ≥ 20 µM; Kd (HLA-B*18:01; [15]): ≥ 20 µM; Kd (HLA-A*29:02; [15]): ≥ 20 µM; Kd (HLA-A*02:19; [15]): ≥ 20 µM; Kd (HLA-B*27:03; [15]): ≥ 20 µM
